Results from US9724381B2 (THE ADMINISTRATORS OF THE TULANE EDUCATIONAL FUND, priority 2009, dated 2017).
Like-named read-outs stand apart in the source and are kept apart here. Values belong to the substance of their own block, whether it stands above or below them. Where no end group is shown, it is not given here. [ ]: non-standard residue; d: D form. The star is where a group is joined. d2Nal = N[C@H](Cc1ccc2ccccc2c1)C(=O)O; Palmitoyl = CCCCCCCCCCCCCCCC(=O)*; Octanoyl = CCCCCCCC(=O)*; Dap = NC[C@H](N)C(=O)O

Key:
[1] = target: T1, ghrelin O-acyltransferase (GOAT) (Mus musculus, UniProt P0C7A3); conditions: Yang et al. 2008; cited from earlier work
T1 sequence (P0C7A3 1-435): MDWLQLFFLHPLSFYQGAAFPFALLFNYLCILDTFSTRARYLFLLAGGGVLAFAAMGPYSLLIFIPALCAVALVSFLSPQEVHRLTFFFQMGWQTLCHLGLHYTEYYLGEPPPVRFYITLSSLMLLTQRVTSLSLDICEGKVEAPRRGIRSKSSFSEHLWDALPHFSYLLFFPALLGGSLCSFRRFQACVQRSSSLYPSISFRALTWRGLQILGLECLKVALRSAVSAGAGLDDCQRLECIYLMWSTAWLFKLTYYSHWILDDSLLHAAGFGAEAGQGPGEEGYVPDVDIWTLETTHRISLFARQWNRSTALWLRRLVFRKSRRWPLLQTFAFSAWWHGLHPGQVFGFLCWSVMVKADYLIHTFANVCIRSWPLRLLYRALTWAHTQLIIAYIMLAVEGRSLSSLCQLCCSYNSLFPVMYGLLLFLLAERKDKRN

GHS-R 1a [2] = target: T2, GHS-R 1a (Rattus norvegicus, UniProt O08725); test: Plasma GH (ghrelin-induced, GHRH-induced, spontaneous pulsatile) in free-moving adult male rats after GHS-A; type: in vivo; conditions: for plasma GH response to ghrelin, central: 5 μg GHS-A i.c.v. 15 min before 500 ng ghrelin i.c.v.
T2 construct: free-moving rats were i.c.v. injected with either normal saline or GHS-A (5 μg); from tissue; host or cells: whole animal (rat; hypothalamus/pituitary)
Method: (§1) Adult male Sprague Dawley rats (225-260 g) were purchased from Charles River Canada (St. Constant, Canada) and individually housed on a 12-h light, 12-h dark cycle (lights on, 0600-1800 h) in a temperature (22±1° C.)- and humidity-controlled room. Purina rat chow (Ralston Purina Co., St. Louis, Mo.) and tap water were available ad libitum.
(§2) Chronic intracerebroventricular (i.c.v.) and intracardiac venous cannulas were implanted under sodium pentobarbital (50 mg/kg, i.p.) anesthesia using previously described techniques in (2) and (11). The placement of the icy cannulae was verified by both a positive drinking response to i.c.v. carbachol (100 ng/10 μl) injection on the day after surgery and methylene blue dye at the time of death. After surgery, the rats were placed directly in isolation test chambers with food and H2O freely available until body weight returned to preoperative levels (usually within 5-7 d). During this time the rats were handled daily to minimize any stress associated with handling on the day of the experiment. On the test day, food was removed 1.5 h before the start of sampling and was returned at the end.
The efficacy of GHS-A to antagonize ghrelin's stimulatory action on GH at both central and peripheral sites was examined. […] (500 ng). Both the human ghrelin peptide (provided by Dr. K. Chang, Phoenix Pharmaceuticals, Inc., Belmont, Calif.) and the GHS-A were diluted in normal saline just before use. Blood samples (0.35 ml) were withdrawn every 15 min over a 6-h sampling period (1000-1600 h) from all animals. […] All blood samples were immediately centrifuged, and plasma was separated and stored at −20° C. for subsequent assay of GH. To avoid hemodynamic disturbance, the red blood cells were resuspended in normal saline and returned to the animal after removal of the next blood sample.
Blood samples were withdrawn from 1000-1600 h, as described above.
These time points were chosen because they correspond closely to the time of onset of the spontaneous GH secretory episodes, as previously documented in our laboratory (2, 4). Blood samples were withdrawn from 1000-1600 h, as described above; however, no blood sample was withdrawn 5 min after the injections.

GHS-R 1a [3] = target: T2, GHS-R 1a; test: Spontaneous and ghrelin-induced food intake in rats after i.c.v. GHS-A; type: in vivo
Method: as §1, §2
The effects of the GHS-A on both spontaneous and ghrelin-induced food intake and body weight gain were investigated. For the spontaneous experiments, the rats were fasted overnight (1600-1100 h next morning) and were i.c.v.-injected with either normal saline or GHS-A (5 μg) at 1100 h. Food intake was monitored on an hourly basis for 5 h after the initial injection (until 1600 h) and subsequently overnight (1600-0900 h next morning). A measured amount of rat chow pellets was placed in the cage every hour. Spillage was collected by placement of a diaper under the rat cages, and total food consumed for each period was calculated by subtracting uneaten food plus spillage from total given. Body weights were recorded daily at 0900 h. The latency to the onset of the first meal after the injection and the duration of that meal were also monitored.
Food intake was monitored on an hourly basis as described above. In this experiment, food was removed 1.5 h before the start of the test.

[4] = target: Ghrelin/GHRP/GHS Receptor (Rattus norvegicus, UniProt O08725); test: In vivo GH release in rat (serum GH by RIA after i.v. peptide); conditions: Table 2
Method: For the in vivo assay of GH Release in rat, immature female Sprague Dawley rats were obtained from Charles River from Wilmington, Mass. After arrival they were housed at 25° C. with a 14:10 h light:dark cycle. Water and Purina rat chow were available at libitum. Pups were weaned at 21 days of age.
Immature twenty six day old female Sprague Dawley rats, 3-6 rats per treatment dose, were pretreated with pentobarbital 20 minutes before iv injection of vehicle/peptide or peptide plus stimulator. Injection was made as a 0.1 ml solution. For the non-pentobarbital treated rat assay, peptides were administered iv into the tail vein of conscious rats. All animals were sacrificed by guillotine after iv peptide or vehicle. Trunk blood was collected at +10-15 minutes […], allowed to clot, centrifuged and serum stored until assayed for GH levels by RIA. The GH RIA reagents were distributed by the NIH. Control data was collected from rats treated with only the corresponding vehicle in the absence of peptide or stimulator. Control stimulated data was collected from rats treated with stimulator alone in the absence of any peptide.

ghrelin-R (GHS-R 1a) [5] = target: T3, ghrelin-R (GHS-R 1a) (Rattus norvegicus, UniProt O08725); test: Food intake after administration of peptide (FIG. 10); type: in vivo
T3 construct: from tissue; host or cells: whole animal (hypothalamus)

ghrelin-R (GHS-R 1a) [6] = target: T3, ghrelin-R (GHS-R 1a); test: Plasma growth hormone / GH secretion after administration of peptide (FIG. 11); type: in vivo
[7] = 5 μg GHS-A i.c.v., spontaneous GH pulses
[8] = overnight-fasted animals, 5 μg GHS-A i.c.v.
[9] = listed as Gly-Met-Ala-Gly-Ser-(Dap-Oct)-Phe-Leu-Ser-Pro-Glu-His-NH2
[10] = listed as Gly-Met-Ala-Gly-Ser-(Dap-Palmityl)-Phe-Leu-Ser-Pro-Glu-His-NH2

T2 sequence (O08725 whole entry): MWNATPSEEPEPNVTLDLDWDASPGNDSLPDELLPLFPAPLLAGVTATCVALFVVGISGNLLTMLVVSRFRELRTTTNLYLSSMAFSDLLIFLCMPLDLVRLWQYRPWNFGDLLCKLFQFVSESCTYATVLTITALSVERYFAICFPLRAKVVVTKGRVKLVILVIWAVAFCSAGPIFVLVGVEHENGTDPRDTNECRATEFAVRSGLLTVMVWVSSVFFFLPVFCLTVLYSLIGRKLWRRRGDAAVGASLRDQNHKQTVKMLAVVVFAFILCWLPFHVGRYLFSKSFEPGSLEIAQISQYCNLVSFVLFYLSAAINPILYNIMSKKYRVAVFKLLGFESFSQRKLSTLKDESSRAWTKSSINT
T3 sequence (O08725 whole entry): as above
Chain of Ghrelin/GHRP/GHS Receptor (O08725 whole entry): as above

Substance: Gly-Ser-Ser(Oct)-Phe-Leu (GSS(Octanoyl)FL) [octanoylated ghrelin pentapeptide]
- GOAT activity [1]: inhibited
- potency enhancement when octanoylated serine-3 replaced by octanoylated diaminopropionic acid [1]: 45 fold

- 1-h GH AUC of the spontaneous GH secretory episode at 1100 h (GHS-R 1a [2]; 5 μg GHS-A i.c.v.): significantly reduced
- 1-h GH AUC of the spontaneous GH secretory episode at 1400 h (GHS-R 1a [2]; 5 μg GHS-A i.c.v.): significantly reduced
- overall 6-h GH AUC (GHS-R 1a [2]; 5 μg GHS-A i.c.v.): significantly reduced
- plasma GH response to ghrelin, central (GHS-R 1a [2]; listed as GHS-A): abolished
- plasma GH response to ghrelin, central (GHS-R 1a [2]; listed as HisDβNalDLysTrpDPheLysNH2): virtually obliterated
- amplitude of the spontaneous GH pulses (GHS-R 1a [2]; 5 μg GHS-A i.c.v. 15 min before expected GH secretory bursts): severely attenuated
- reduction of GH AUC following i.c.v. ghrelin (GHS-R 1a [2]; 5 μg GHS-A i.c.v., ghrelin 500 ng i.c.v., vs normal saline controls): 15 fold
- GH interpeak interval (cluster analysis) (GHS-R 1a [2]; [7]): no significant effect
- GH nadir (cluster analysis) (GHS-R 1a [2]; [7]): no significant effect
- GH peak frequency (cluster analysis) (GHS-R 1a [2]; [7]): no significant effect
- GH peak height (cluster analysis) (GHS-R 1a [2]; [7]): significant suppression
- plasma GH response to ghrelin, peripheral (GHS-R 1a [2]; 250 μg GHS-A i.v. 15 min before 5 μg ghrelin i.v.): strongly blocked
- reduction of GH AUC following i.v. ghrelin (GHS-R 1a [2]; 250 μg GHS-A i.v., ghrelin 5 μg i.v., vs normal saline controls): 5 fold
- GH response to GHRH (GHS-R 1a [2]; GHRH 5 μg i.v.): did not significantly reduce
- cumulative food intake, ghrelin-stimulated (GHS-R 1a [3]; 5 μg GHS-A i.c.v. before ghrelin 500 ng i.c.v., up to 5 h after injection): significantly suppressed
- ghrelin-stimulated food intake in the first hour after injections (GHS-R 1a [3]; 5 μg i.c.v. before ghrelin 500 ng i.c.v.): significantly inhibited
- cumulative food intake beyond the first hour after injection (GHS-R 1a [3]; [8]): not inhibited
- spontaneous food intake in the first hour after injection (GHS-R 1a [3]; [8]): significantly inhibited
- Stimulated GH release from rat ([4]; peptide antagonist 30 μg i.v. + stimulator DAla-DβNal-Ala-Trp-DPhe-Lys-NH2 0.3 μg): 733 ± 85 ng/mL
- Stimulated GH release from rat ([4]; peptide antagonist 100 μg i.v. + stimulator DAla-DβNal-Ala-Trp-DPhe-Lys-NH2 1 μg): 818 ± 269 ng/mL
Substance: His-DβNal-DLys-Trp-DPhe-Lys-NH2 (H[d2Nal][dK]W[dF]K-NH2; N-terminus assumed; SMILES NCCCC[C@H](NC(=O)[C@@H](Cc1ccccc1)NC(=O)[C@H](Cc1c[nH]c2ccccc12)NC(=O)[C@@H](CCCCN)NC(=O)[C@@H](Cc1ccc2ccccc2c1)NC(=O)[C@@H](N)Cc1c[nH]cn1)C(N)=O) [GHRP derivative ghrelin receptor antagonist; GHS-A of the rat studies per b295]

Substance: Gly-Met-Ala-Gly-Ser-(Dap-Oct)-Phe-Leu-Ser-Pro-Glu-His-NH2 (GMAGS[Dap](Octanoyl)FLSPEH-NH2; N-terminus assumed; SMILES CCCCCCCC(=O)NC[C@H](NC(=O)[C@H](CO)NC(=O)CNC(=O)[C@H](C)NC(=O)[C@H](CCSC)NC(=O)CN)C(=O)N[C@@H](Cc1ccccc1)C(=O)N[C@@H](CC(C)C)C(=O)N[C@@H](CO)C(=O)N1CCC[C@H]1C(=O)N[C@@H](CCC(=O)O)C(=O)N[C@@H](Cc1c[nH]cn1)C(N)=O) [peptide #3]
- food intake (ghrelin-R (GHS-R 1a) [5]): inhibited food intake
- food intake (ghrelin-R (GHS-R 1a) [5]; [9]): reduced
- growth hormone secretion / plasma growth hormone levels (ghrelin-R (GHS-R 1a) [6]): inhibited growth hormone secretion
- growth hormone secretion / plasma growth hormone levels (ghrelin-R (GHS-R 1a) [6]; [9]): inhibited

Substance: Gly-Met-Ala-Gly-Ser-(Dap-Palmityl)-Phe-Leu-Ser-Pro-Glu-His-NH2 (GMAGS[Dap](Palmitoyl)FLSPEH-NH2; N-terminus assumed; SMILES CCCCCCCCCCCCCCCC(=O)NC[C@H](NC(=O)[C@H](CO)NC(=O)CNC(=O)[C@H](C)NC(=O)[C@H](CCSC)NC(=O)CN)C(=O)N[C@@H](Cc1ccccc1)C(=O)N[C@@H](CC(C)C)C(=O)N[C@@H](CO)C(=O)N1CCC[C@H]1C(=O)N[C@@H](CCC(=O)O)C(=O)N[C@@H](Cc1c[nH]cn1)C(N)=O) [peptide #6]
- food intake (ghrelin-R (GHS-R 1a) [5]; [10]): did not inhibit GH secretion or decreased food intake
- growth hormone secretion / plasma growth hormone levels (ghrelin-R (GHS-R 1a) [6]; [10]): did not inhibit
